Data published in patent US12123876B2, “Antibody binding to HEG1 and use of the antibody for detection and treatment of mesothelioma” (Kanagawa Prefectural Hospital Organization, priority 2016, dated 2024).
Entries after “also recorded” stand apart in the source; their conditions may differ.

Key:
[1] = test system: HEG1 protein (purified from ACC-MESO4 or recombinant soluble HEG1); assay: Western blot / dot blot reactivity of antibodies with HEG1 protein; format: binding, human
Protocol: A massive amount of ACC-MESO4 was cultured, and purification of an antigen from the cell lysate was performed. Cells from 240 10-cm dishes were solubilized with 50 mM Tris buffer (pH 8.0) containing 1% TRITON™ X-100 (detergent), 1% CHAPS, 1 mM EDTA, 50 mM NaCl, and protease inhibitor (Complete, Roche Life Science), and then centrifuged. The resulting supernatant was dialyzed with 20 mM acetate buffer (pH 5.0) at 4° C. for 18 hours to afford an acidic precipitate. The precipitate was extracted with 20 mM Tris buffer (pH 7.2) containing 0.1% TWEEN® 20 (polyethylene glycol sorbitan monolaurate, polyoxyethylenesorbitan monolaurate) and 150 mM NaCl and centrifuged, and the resulting supernatant was concentrated by using an Amicon Ultra-15, 100 kDa (Merck Millipore) and subjected to solution exchange with 20 mM Tris buffer (pH 8.0) containing 6 M guanidine hydrochloride. To the concentrated solution, tris(2-carboxyethyl)phosphine hydrochloride with a final concentration of 10 mM was added, and the resultant was heated at 60° C. for 30 minutes, and iodoacetamide with a final concentration of 40 mM was then added thereto, and reacted at room temperature for 3 hours. The reaction solution was subjected to gel filtration chromatography (SUPEROSE® 6 INCREASE (prepacked column) 10/300 GL (GE Healthcare)) in 20 mM Tris buffer (pH 8.0) containing 6 M guanidine hydrochloride and 0.05% TWEEN® 20 (polyethylene glycol sorbitan monolaurate, polyoxyethylenesorbitan monolaurate), and fractions positive for dot blot were collected. The sample was dialyzed with 25 mM phosphate buffer (pH 7.0) containing 4 M urea and 0.05% TWEEN® 20 (polyethylene glycol sorbitan monolaurate, polyoxyethylenesorbitan monolaurate) at room temperature overnight, and applied to a Mono Q 5/50 GL (GE Healthcare). The column was washed with 25 mM phosphate buffer (pH 7.0) containing 4 M urea and 0.05% TWEEN® 20 (polyethylene glycol sorbitan monolaurate, polyoxyethylenesorbitan monolaurate), and thereafter elution was performed with an NaCl salt concentration gradient of 0 to 1 M. Fractions strongly positive for dot blot were collected, and dialyzed with 25 mM phosphate buffer (pH 7.2) containing 150 mM NaCl and 0.05% TWEEN® 20 (polyethylene glycol sorbitan monolaurate, polyoxyethylenesorbitan monolaurate) at room temperature overnight, and applied to 1 mL of WGA-SEPHAROSE® (wheat germ agglutinin-crosslinked, beaded-form of agarose) (J-OIL MILLS, Inc.). After washing with buffer, elution was performed with 25 mM phosphate buffer (pH 7.2) containing 0.2 M N-acetylglucosamine, 150 mM NaCl, and 0.05% TWEEN® 20 (polyethylene glycol sorbitan monolaurate, polyoxyethylenesorbitan monolaurate), and the eluent was concentrated with a Centricon (YM-30) (Millipore). Gel filtration chromatography (SUPEROSE® 6 INCREASE (prepacked column) 10/300 GL (GE Healthcare)) was performed in 25 mM phosphate buffer (pH 7.2) containing 3 M GdnHCI and 0.5% CHAPS, and fractions strongly positive for dot blot were dialyzed with 20 mM NH4HCO3 containing 0.5% CHAPS at room temperature overnight to afford a purified antigen.
The dot blot was performed as follows. A PVDF membrane (Immobilon-P, Merck Millipore) was soaked in methanol, and then washed and impregnated with pure water. The hydrophilized PVDF membrane was placed on a filter paper containing water to avoid air inclusion, removed of excessive moisture, and soaked with 1 to 5 μL of the sample in dots fed by a micropipette. After the membrane was dried at room temperature overnight, the membrane was hydrophilized again with methanol and pure water, and blocked with 20 mM Tris buffer (pH 7.4) containing 5% skim milk, 0.1% TWEEN® 20 (polyethylene glycol sorbitan monolaurate, polyoxyethylenesorbitan monolaurate), and 150 mM NaCl (blocking buffer) at room temperature for 1 hour. […]

[2] = test system: HEG1 protein on the surface of ACC-MESO4 cells; assay: Flow cytometry of ACC-MESO4 cells with antibody; format: cell-based, human; conditions: FITC-labeled anti-mouse IgG, flow cytometer
Protocol: First, ACC-MESO4 was cultured, and cells adhering to the culture dish were peeled off with a scraper. The cells peeled off were reacted with the SKM9-2 antibody, and then treated with FITC-labeled anti-mouse IgG, and analyzed by using a flow cytometer. […] If the SKM9-2 antibody binds to the extracellular region of HEG1 protein, cells are to be FITC-labeled and thus fluorescence would be observed in flow cytometry.

B1: SKM9-2 antibody: mouse monoclonal IgG1 kappa antibody binding glycosylated HEG1; heavy chain SEQ ID NO: 2, light chain SEQ ID NO: 4 (antibody, listed as Mus musculus)
heavy: MGWSSIILFLVATTTGVHSQVQLQQPGAELVRPGASVKLSCKASGFSFTTYWITWVKQRPGQGLEWIGMIHPSDSETRLSQTFKDKATLTVDKSSNTAYMQFSSPTSEDSAVYYCVRDFDVWGAGTTVTVSSAKTTPPSVYPLAPGSAAQTNSMVTLGCLVKGYFPEPVTVTWNSGSLSSGVHTFPAVLQSDLYTLSSSVTVPSSTWPSETVTCNVAHPASSTKVDKKIVPRDCGCKPCICTVPEVSSVFIFPPKPKDVLTITLTPKVTCVVVDISKDDPEVQFSWFVDDVEVHTAQTQPREEQFNSTFRSVSELPIMHQDWLNGKEFKCRVNSAAFPAPIEKTISKTKGRPKAPQVYTIPPPKEQMAKDKVSLTCMITDFFPEDITVEWQWNGQPAENYKNTQPIMDTDGSYFVYSKLNVQKSNWEAGNTFTCSVLHEGLHNHHTEKSLSHSPGK
light: MKLPVRLLVLMFWIPASISDVLMTQTPLSLPVSLGDQASISCRSSQNIVHNNGNTYLGWYLQKPGQSPKLLIFKVSNRFSGVPDRFSGSGSGTDFTLKISRVEAEDLGVYYCFQGSHIPRTFGGGTRLEIKRADAAPTVSIFPPSSEQLTSGGASVVCFLNNFYPKDINVKWKIDGSERQNGVLNSWTDQDSKDSTYSMSSTLTLTKDEYERHNSYTCEATHKTSTSPIVKSFNRNEC
- Recognition of purified antigen band at approximately 400 kDa ([1]; Western blotting, antigen purified from ACC-MESO4): recognized
- Reactivity with antigen after N-glycanase (PNGase F) treatment ([1]; dot blot): did not cause the antibody to lose the reactivity
- Reactivity with antigen after Proteinase K treatment ([1]; dot blot): caused the antibody to lose the reactivity
- Reactivity with antigen treated with neuraminidase ([1]; dot blot, HEG1 protein purified from ACC-MESO4, neuraminidase treatment): did not bind; also recorded: weakened
- Binding to cell surface of ACC-MESO4 [2]: bind to a HEG1 protein part exposed on the surface of the cell membrane
